The target in test [1] is T1, human CypA (1–165) (human, UniProt P62937 1-165).
The target in test [2] is T1, human CypA (1–165). The test is described as follows: NMR titration.

B1: CrkII^P218F (natural protein)
chain: MAGNFDSEERSSWYWGRLSRQEAVALLQGQRHGVFLVRDSSTSPGDYVLSVSENSRVSHYIINSSGPRPPVPPSPAQPPPGVSPSRLRIGDQEFDSLPALLEFYKIHYLDTTTLIEPVSRSRQGSGVILRQEEAEYVRALFDFNGNDEEDLPFKKGDILRIRDKPEEQWWNAEDSEGKRGMIPVPYVEKYRPASASVSALIGGNQEGSHPQPLGGPEFGPYAQPSVNTPLPNLQNGPIYARVIQKRVPNAYDKTALALEVGELVKVTKINVSGQWEGECNGKRGHFPFTHVRLLDQQNP
B1: in the test with human CypA (1–165) [1], the “fold higher affinity than wild-type CrkII” value was ~20 fold. For PEPGPYAQPS [CrkII peptide (Pro216-Ser225)], the binding result in the test with human CypA (1–165) [2] was “binds”.
